Source: patent US20100239571A1 (Seagen, published 2010)

Key:
[1] = molecular target: T1, CD30 surface antigen expressed on Karpas-299 (human, UniProt P28908 19-595); test: competition binding on Karpas 299 cells against europium-labeled cAC10
T1 construct: whole, on cells; also called human CD30
T1 sequence (looked up): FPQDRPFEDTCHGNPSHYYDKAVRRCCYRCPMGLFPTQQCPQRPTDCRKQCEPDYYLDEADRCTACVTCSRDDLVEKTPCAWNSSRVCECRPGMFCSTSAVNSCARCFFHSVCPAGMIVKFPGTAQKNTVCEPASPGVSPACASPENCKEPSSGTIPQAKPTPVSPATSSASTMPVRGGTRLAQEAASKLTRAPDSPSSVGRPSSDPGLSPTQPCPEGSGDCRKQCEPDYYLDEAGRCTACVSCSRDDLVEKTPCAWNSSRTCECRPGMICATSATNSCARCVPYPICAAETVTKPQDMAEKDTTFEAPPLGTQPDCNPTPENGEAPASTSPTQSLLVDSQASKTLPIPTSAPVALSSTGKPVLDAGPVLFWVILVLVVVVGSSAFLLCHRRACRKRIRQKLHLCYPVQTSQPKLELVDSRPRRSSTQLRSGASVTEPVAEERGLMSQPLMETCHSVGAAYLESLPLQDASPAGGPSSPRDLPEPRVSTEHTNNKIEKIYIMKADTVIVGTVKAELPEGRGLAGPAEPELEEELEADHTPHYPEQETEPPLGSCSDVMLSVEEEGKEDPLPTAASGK
Experimental: (§1) The variants were tested for binding to CD30 surface antigen expressed on Karpas-299, an anaplastic large cell lymphoma cell line, using a competition binding assay in which cAC10, expressed in CHO cells, was europium labeled (see, e.g., Law et al., Cancer Research 65:8331-38 (2005)). The results, shown below in the second column of Table 6, indicate that all of the variants were able to compete with cAC10 for binding to CD30. Thus, the variants retained antigen binding activity.

[2] = molecular target: T1, CD30 surface antigen expressed on …; test: competition binding on Karpas 299 cells against europium-labeled cAC10 (control competitor)
Experimental: as §1

Row | Binder | EC50 [1] | EC50 [2]
1 | hAC10 HALA (antibody, human IgG1, kappa, V domains shown, The name HALA is read as heavy variant A plus light variant A; also called humanized AC10 variant HALA; hVH A + hVL A) VH: QVQLVQSGAEVKKPGASVKVSCKASGYTFTDYYITWVRQAPGQGLEWMGWIYPGSGNTKYNEKFKGRVTMTVDTSISTAYMELSRLRSDDTAVYFCANYGNYWFAYWGQGTLVTVSS VL: DIVMTQSPDSLAVSLGERATINCKASQSVDFDGDSYMNWYQQKPGQPPKLLIYAASNLESGVPDRFSGSGSGTDFTLTISSLQAEDVAVYYCQQSNEDPWTFGQGTKVEIKR | 6.61 nM | 
2 | hAC10 HBLA (antibody, human IgG1, kappa, V domains shown, Human IgG1 / kappa; also called humanized AC10 variant HBLA; hVH B + hVL A) VH: QVQLVQSGAEVKKPGASVKVSCKASGYTFTDYYITWVRQAPGQGLEWMGWIYPGSGNTKYNEKFKGRVTMTRDTSISTAYMELSRLRSDDTAVYFCANYGNYWFAYWGQGTLVTVSS VL: DIVMTQSPDSLAVSLGERATINCKASQSVDFDGDSYMNWYQQKPGQPPKLLIYAASNLESGVPDRFSGSGSGTDFTLTISSLQAEDVAVYYCQQSNEDPWTFGQGTKVEIKR | 3.31 nM | 
3 | hAC10 HDLD (antibody, human IgG1, kappa, V domains shown, Human IgG1 / kappa; also called humanized AC10 variant HDLD; hVH D + hVL D) VH: QVQLVQSGAEVKKPGASVKVSCKASGYTFTDYYITWVRQAPGQGLEWMGWIYPGSGNTKYNEKFKGRVTMTRDTSISTAYMELSRLRSDDTAVYYCANYGNYWFAYWGQGTLVTVSS VL: DIVMTQSPDSLAVSLGERATINCKSSQSVDFDGDSYLNWYQQKPGQPPKLLIYAASNLESGVPDRFSGSGSGTDFTLTISSLQAEDVAVYYCQQSNEDPWTFGQGTKVEIKR | 2.25 nM | 
4 | hAC10 HALB (antibody, human IgG1, kappa, V domains shown, Human IgG1 / kappa; also called humanized AC10 variant HALB; hVH A + hVL B) VH: QVQLVQSGAEVKKPGASVKVSCKASGYTFTDYYITWVRQAPGQGLEWMGWIYPGSGNTKYNEKFKGRVTMTVDTSISTAYMELSRLRSDDTAVYFCANYGNYWFAYWGQGTLVTVSS VL: DIVMTQSPDSLAVSLGERATINCKSSQSVDFDGDSYMNWYQQKPGQPPKLLIYAASNLESGVPDRFSGSGSGTDFTLTISSLQAEDVAVYYCQQSNEDPWTFGQGTKVEIKR | 5.9 nM | 
5 | hAC10 HDLA (antibody, human IgG1, kappa, V domains shown, Human IgG1 / kappa; also called humanized AC10 variant HDLA; antibody HDLA) VH: QVQLVQSGAEVKKPGASVKVSCKASGYTFTDYYITWVRQAPGQGLEWMGWIYPGSGNTKYNEKFKGRVTMTRDTSISTAYMELSRLRSDDTAVYYCANYGNYWFAYWGQGTLVTVSS VL: DIVMTQSPDSLAVSLGERATINCKASQSVDFDGDSYMNWYQQKPGQPPKLLIYAASNLESGVPDRFSGSGSGTDFTLTISSLQAEDVAVYYCQQSNEDPWTFGQGTKVEIKR | 3.1 nM | 
6 | hAC10 HALC (antibody, human IgG1, kappa, V domains shown, Human IgG1 / kappa; also called humanized AC10 variant HALC; hVH A + hVL C) VH: QVQLVQSGAEVKKPGASVKVSCKASGYTFTDYYITWVRQAPGQGLEWMGWIYPGSGNTKYNEKFKGRVTMTVDTSISTAYMELSRLRSDDTAVYFCANYGNYWFAYWGQGTLVTVSS VL: DIVMTQSPDSLAVSLGERATINCKASQSVDFDGDSYLNWYQQKPGQPPKLLIYAASNLESGVPDRFSGSGSGTDFTLTISSLQAEDVAVYYCQQSNEDPWTFGQGTKVEIKR | 3.53 nM | 
7 | hAC10 HALD (antibody, human IgG1, kappa, V domains shown, Human IgG1 / kappa; also called humanized AC10 variant HALD; hVH A + hVL D) VH: QVQLVQSGAEVKKPGASVKVSCKASGYTFTDYYITWVRQAPGQGLEWMGWIYPGSGNTKYNEKFKGRVTMTVDTSISTAYMELSRLRSDDTAVYFCANYGNYWFAYWGQGTLVTVSS VL: DIVMTQSPDSLAVSLGERATINCKSSQSVDFDGDSYLNWYQQKPGQPPKLLIYAASNLESGVPDRFSGSGSGTDFTLTISSLQAEDVAVYYCQQSNEDPWTFGQGTKVEIKR | 6 nM | 
8 | hAC10 HCLA (antibody, human IgG1, kappa, V domains shown, Human IgG1 / kappa; also called humanized AC10 variant HCLA; hVH C + hVL A) VH: QVQLVQSGAEVKKPGASVKVSCKASGYTFTDYYITWVRQAPGQGLEWMGWIYPGSGNTKYNEKFKGRVTMTVDTSISTAYMELSRLRSDDTAVYYCANYGNYWFAYWGQGTLVTVSS VL: DIVMTQSPDSLAVSLGERATINCKASQSVDFDGDSYMNWYQQKPGQPPKLLIYAASNLESGVPDRFSGSGSGTDFTLTISSLQAEDVAVYYCQQSNEDPWTFGQGTKVEIKR | 3.61 nM | 
9 | cAC10 (CHO) (antibody, V domains shown, Human-murine chimeric AC10 expressed in CHO cells; also called chimeric AC10; chimeric monoclonal antibody AC10) VH: QVQLVQSGAEVVKPGASVKVSCKASGYTFTDYYITWVRQAPGQGLEWMGWIYPGSGNTKYNEKFKGKATLTVDTSSSTAFMQLSSLTSEDTAVYFCANYGNYWFAYWGQGTQVTVSA VL: DIVLTQSPASLAVSLGQRATISCKASQSVDFDGDSYMNWYQQKPGQPPKVLIYAASNLESGIPARFSGSGSGTDFTLNIHPVEEEDAATYYCQQSNEDPWTFGGGTKLEIK |  | 2.9 nM
